# Tested on: tau
substance,measurement,value
Gleevec-resistant abl1 (T3611 form),"tyrosine phosphorylation of tau in the presence of Gleevec (western blot, ELISA)","In the presence of Gleevec, both forms could phosphorylate tau"

# Source: patent publication US20070134724
